From IntAct's records for PubMed 21242966

B1: F-box only protein 4 (Homo sapiens), Q9UKT5 (parent)
chain: MAGSEPRSGTNSPPPPFSDWGRLEAAILSGWKTFWQSVSKERVARTTSREEVDEAASTLTRLPIDVQLYILSFLSPHDLCQLGSTNHYWNETVRDPILWRYFLLRDLPSWSSVDWKSLPDLEILKKPISEVTDGAFFDYMAVYRMCCPYTRRASKSSRPMYGAVTSFLHSLIIQNEPRFAMFGPGLEELNTSLVLSLMSSEELCPTAGLPQRQIDGIGSGVNFQLNNQHKFNILILYSTTRKERDRAREEHTSAVNKMFSRHNEGDDQQGSRYSVIPQIQKVCEVVDGFIYVANAEAHKRHEWQDEFSHIMAMTDPAFGSSGRPLLVLSCISQGDVKRMPCFYLAHELHLNLLNHPWLVQDTEAETLTGFLNGIEWILEEVESKRAR
B2: 14-3-3 protein epsilon (Rattus norvegicus (Rat)), P62260 (parent)
chain: MDDREDLVYQAKLAEQAERYDEMVESMKKVAGMDVELTVEERNLLSVAYKNVIGARRASWRIISSIEQKEENKGGEDKLKMIREYRQMVETELKLICCDILDVLDKHLIPAANTGESKVFYYKMKGDYHRYLAEFATGNDRKEAAENSLVAYKAASDIAMTELPPTHPIRLGLALNFSVFYYEILNSPDRACRLAKAAFDDAIAELDTLSEESYKDSTLIMQLLRDNLTLWTSDMQGDGEEQNKEALQDVEDENQ

Experiments:
[1] = variants of: B1; conditions: with 1433e_mouse Ywhae
[2] = variants of: B1; conditions: with 1433e_human YWHAE
1433e_rat Ywhae, P62260 = variants of: B1; conditions: with 1433e_rat Ywhae, P62260
[3] = variants of: B1; conditions: with 1433e_human YWHAE; remark: listed apart in the source
fbx4_human FBXO4, Q9UKT5 = variants of: B2; conditions: with fbx4_human FBXO4, Q9UKT5

| Variant | effect of a mutation on the interaction [1] | effect of a mutation on the interaction [2] | effect of a mutation on the interaction (1433e_rat Ywhae, P62260) | effect of a mutation on the interaction [3] | effect of a mutation on the interaction (fbx4_human FBXO4, Q9UKT5) |
| --- | --- | --- | --- | --- | --- |
| S12A | disrupting interaction | disrupting interaction | decreasing interaction |  |  |
| S8R | disrupting interaction | disrupting interaction | decreasing interaction | decreasing interaction |  |
| K50E |  |  |  |  | disrupting interaction |
